# Test results from patent US9187525B2, “Methods of treating ophthalmic diseases using NPR-B agonists” (Shire Orphan Therapies GmbH, dated 2015).
# Numbered stars: 1 amine (or outer) side, 2 acyl side, 3 side chain; on linkers, the order of the positions; unused ones are H or OH. Square brackets hold non-standard residues; d marks the D form. Primed or numbered codes have the meaning given here. Ends that are not written are not given here. * marks the point of attachment. Pro(trans-4-NH2) = O=C([C@@H]1C[C@@H](N[*:3])CN1[*:1])[*:2]; Sni = (S)-nipecotic acid, O=C([C@H]1CCCN([*:1])C1)[*:2]; Pro(trans-4-Ph) = O=C(O)[C@@H]1C[C@@H](c2ccccc2)CN1; Tyr(3-I) = N[C@@H](Cc1ccc(O)c(I)c1)C(=O)O; Cpp = rac-(3R,4S)-cis-methanoproline; dDap(Me2) = CN(C)C[C@@H](N)C(=O)O; Hyp = O=C(O)[C@@H]1C[C@@H](O)CN1; Gly(cPr) = N[C@H](C(=O)O)C1CC1; Aoc(2) = CCCCCC[C@H](N)C(=O)O; NMeL = CN[C@@H](CC(C)C)C(=O)O; Chg = N[C@H](C(=O)O)C1CCCCC1; Tle = CC(C)(C)[C@H](N)C(=O)O; Ac6c = NC1(C(=O)O)CCCCC1; Octanoyl = CCCCCCCC(=O)*; Thz = O=C(O)[C@@H]1CSCN1; Api = NC1(C(=O)O)CCNCC1; Pip′ = not defined here; dAze = O=C(O)[C@H]1CCN1; Oct = not defined here; GABA = NCCCC(=O)O
# T1: natriuretic peptide receptor-B (human)
# T1 chain: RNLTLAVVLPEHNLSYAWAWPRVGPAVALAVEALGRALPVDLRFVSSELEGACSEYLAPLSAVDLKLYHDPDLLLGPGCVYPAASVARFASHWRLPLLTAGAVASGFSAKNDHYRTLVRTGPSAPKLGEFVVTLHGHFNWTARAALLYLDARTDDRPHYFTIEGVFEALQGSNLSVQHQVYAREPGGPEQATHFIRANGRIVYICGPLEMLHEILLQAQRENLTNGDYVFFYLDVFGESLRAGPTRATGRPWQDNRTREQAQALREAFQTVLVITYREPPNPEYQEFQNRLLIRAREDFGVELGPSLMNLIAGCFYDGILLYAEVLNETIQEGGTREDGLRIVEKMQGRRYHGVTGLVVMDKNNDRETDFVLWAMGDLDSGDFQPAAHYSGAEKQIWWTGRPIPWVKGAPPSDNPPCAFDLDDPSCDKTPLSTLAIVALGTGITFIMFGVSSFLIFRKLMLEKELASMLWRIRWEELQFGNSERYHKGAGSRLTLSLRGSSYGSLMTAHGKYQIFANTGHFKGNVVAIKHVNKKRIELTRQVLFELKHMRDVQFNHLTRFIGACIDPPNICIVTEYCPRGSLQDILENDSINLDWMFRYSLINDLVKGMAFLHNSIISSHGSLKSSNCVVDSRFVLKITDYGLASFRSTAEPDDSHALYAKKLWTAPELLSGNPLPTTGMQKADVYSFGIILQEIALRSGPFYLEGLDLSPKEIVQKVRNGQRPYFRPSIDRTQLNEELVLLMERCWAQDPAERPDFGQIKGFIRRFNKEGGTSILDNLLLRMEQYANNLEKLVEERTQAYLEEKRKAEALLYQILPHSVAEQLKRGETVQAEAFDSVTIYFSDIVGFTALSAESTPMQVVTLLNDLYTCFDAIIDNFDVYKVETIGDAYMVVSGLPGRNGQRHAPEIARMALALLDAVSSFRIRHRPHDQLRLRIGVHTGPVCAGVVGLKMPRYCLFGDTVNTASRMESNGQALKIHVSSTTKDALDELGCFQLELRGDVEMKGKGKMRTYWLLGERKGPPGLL
# B1: JAL-1460 (peptide)
# peptide: Octanoyl-[dA]FXL[Pro(trans-4-NH2)][NMeL]DRI-NH2
# modifications: not fully specified (some residues); printed as Occ-ala-Phe-dap(6238)2-Leu-Tap-Nml-Asp-Arg-Ile-NH2
# B2: JAL-1462 (peptide)
# peptide: Octanoyl-[dA]FXL[Pro(trans-4-NH2)][NMeL]DRI-NH2
# modifications: not fully specified (some residues); printed as Occ-ala-Phe-dap(3846)2-Leu-Tap-Nml-Asp-Arg-Ile-NH2
# B3: JAL-1429 (peptide)
# peptide: [Oct][Sni]F[dDap(Me2)]L[Hyp][NMeL]DRI-NH2
# modifications: reading uncertain; also: printed as Oct-Sni-Phe-dap(Me2)-Leu-Hyp-Nml-Asp-Arg-Ile-NH2
# B4: JAL-0653 (peptide)
# peptide: XXFGLKLDRI
# HELM: PEPTIDE1{[CCCCCC(=O)[*:2]].[O=C([C@H]1CC[C@H](CN[*:1])CC1)[*:2]].F.G.L.K.L.D.R.I.[am]}$$$$V2.0
# SMILES: CCCCCC(=O)NC[C@H]1CC[C@H](C(=O)N[C@@H](Cc2ccccc2)C(=O)NCC(=O)N[C@@H](CC(C)C)C(=O)N[C@@H](CCCCN)C(=O)N[C@@H](CC(C)C)C(=O)N[C@@H](CC(=O)O)C(=O)N[C@@H](CCCNC(=N)N)C(=O)N[C@H](C(N)=O)[C@@H](C)CC)CC1
# B5: JAL-0654 (peptide)
# peptide: XXFGLKLDRI
# HELM: PEPTIDE1{[CCCCCC(=O)[*:2]].[O=C(C1CCCN([*:1])C1)[*:2]].F.G.L.K.L.D.R.I.[am]}$$$$V2.0
# SMILES: CCCCCC(=O)N1CCCC(C(=O)N[C@@H](Cc2ccccc2)C(=O)NCC(=O)N[C@@H](CC(C)C)C(=O)N[C@@H](CCCCN)C(=O)N[C@@H](CC(C)C)C(=O)N[C@@H](CC(=O)O)C(=O)N[C@@H](CCCNC(=N)N)C(=O)N[C@H](C(N)=O)[C@@H](C)CC)C1
# B6: JAL-1461 (peptide)
# peptide: Octanoyl-[dA]FXL[Pro(trans-4-NH2)][NMeL]DRI-NH2
# modifications: not fully specified (some residues); printed as Occ-ala-Phe-dap(6238)-Leu-Tap-Nml-Asp-Arg-Ile-NH2
# Biological target: T1, natriuretic peptide receptor-B
# Assay: cell-based or functional assay
row,Binder,"EC50 group, cGMP in GTM-3 cells"
1,"Octanoyl-AFLL[Hyp][NMeL]D[dAze]I-NH2 (also: lower-case ala, leu: meaning not given here) [JAL-1437]",≤ 5 µM
2,Octanoyl-[dA]F[dL]L[Hyp][NMeL]D[Api]I-NH2 [JAL-1458],≤ 5 µM
3,Octanoyl-[Sni]FLL[Hyp][NMeL]DPI-NH2 (also: lower-case leu: meaning not given here) [JAL-1436],≤ 5 µM
4,B1,≤ 5 µM
5,Octanoyl-[dA]F[dL]L[Hyp][NMeL]D[Pro(trans-4-Ph)]I-NH2 [JAL-1456],≤ 15 µM
6,B2,≤ 5 µM
7,"Octanoyl-AFLL[Hyp][NMeL]D[Thz]I-NH2 (also: lower-case ala, leu: meaning not given here) [JAL-1442]",≤ 5 µM
8,Octanoyl-[dA]F[dL]L[Hyp][NMeL]D[Ac6c]I-NH2 [JAL-1457],≤ 15 µM
9,Octanoyl-[dA]F[dDap(Me2)]L[Pro(trans-4-NH2)][NMeL]DPI-NH2 [JAL-1453],≤ 1 µM
10,"Octanoyl-AFLL[Hyp][NMeL]DPI-NH2 (also: lower-case ala, leu: meaning not given here) [JAL-1418]",≤ 5 µM
11,"Octanoyl-AFLL[Hyp][NMeL][Gly(cPr)]RI-NH2 (also: lower-case ala, leu: meaning not given here) [JAL-1424]",≤ 15 µM
12,"Octanoyl-AFLL[Hyp][NMeL][Chg]RI-NH2 (also: lower-case ala, leu: meaning not given here) [JAL-1421]",≤ 15 µM
13,"[Tyr(3-I)][GABA][Aoc(2)]AFRL[Hyp][NMeL]DRI-NH2 (also: lower-case ala, arg: meaning not given here) [JAL-1431]",≤ 15 µM
14,B3,≤ 1 µM
15,"Octanoyl-AFLL[Hyp][NMeL]D[Pip′]I-NH2 (also: lower-case ala, leu: meaning not given here) [JAL-1438]",≤ 5 µM
16,B4,≤ 15 µM
17,"Octanoyl-AFLL[Hyp][NMeL]D[Hyp]I-NH2 (also: lower-case ala, leu: meaning not given here) [JAL-1441]",≤ 15 µM
18,Octanoyl-[dA]F[Api]L[Pro(trans-4-NH2)][NMeL]DPI-NH2 [JAL-1452],≤ 1 µM
19,"Octanoyl-AFLL[Pro(trans-4-NH2)][NMeL]DPI-NH2 (also: lower-case ala, leu: meaning not given here) [JAL-1450]",≤ 5 µM
20,"[Tyr(3-I)][Aoc(2)]AFRL[Hyp][NMeL]DRI-NH2 (also: lower-case ala, arg: meaning not given here) [JAL-1430]",≤ 1 µM
21,Octanoyl-[dA]F[dL]L[Hyp][NMeL]D[Pro(trans-4-NH2)]I-NH2 [JAL-1459],≤ 15 µM
22,B5,≤ 15 µM
23,Octanoyl-AF[Api]L[Hyp][NMeL]DPI-NH2 (also: lower-case ala: meaning not given here) [JAL-1435],≤ 5 µM
24,"Ac-[Tyr(3-I)][GABA][Aoc(2)]AFRL[Hyp][NMeL]DRI-NH2 (also: lower-case ala, arg: meaning not given here) [JAL-1432]",≤ 15 µM
25,"Octanoyl-AFLL[Hyp][NMeL][Tle]RI-NH2 (also: lower-case ala, leu: meaning not given here) [JAL-1420]",≤ 15 µM
26,Octanoyl-AF[Api]L[Hyp][NMeL]DPI-NH2 (also: lower-case ala: meaning not given here) [JAL-1451],≤ 5 µM
27,Octanoyl-[dA]F[Ac6c]L[Pro(trans-4-NH2)][NMeL]DRI-NH2 [JAL-1454],≤ 1 µM
28,"Octanoyl-AFLL[Hyp][NMeL]D[Cpp]I-NH2 (also: lower-case ala, leu: meaning not given here) [JAL-1443]",≤ 5 µM
29,B6,≤ 5 µM
30,"Octanoyl-AFRL[Hyp][NMeL]DPI-NH2 (also: lower-case ala, arg: meaning not given here) [JAL-1434]",≤ 5 µM
